Our source for the binding values is article PMC5405149.

The data set deals with T1, r-YycF (His-GB1-YycF) (Staphylococcus epidermidis (1457?)) (UniProt Q8CQK0).
T1 sequence: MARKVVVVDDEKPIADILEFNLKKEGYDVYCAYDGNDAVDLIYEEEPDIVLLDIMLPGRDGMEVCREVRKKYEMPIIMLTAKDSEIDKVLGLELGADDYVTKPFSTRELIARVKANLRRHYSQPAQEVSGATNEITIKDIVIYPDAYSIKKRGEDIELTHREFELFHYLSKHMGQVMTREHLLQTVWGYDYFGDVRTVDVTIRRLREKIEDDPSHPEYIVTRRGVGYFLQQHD
As to the kind of experiment: EMSA. As to conditions: EMSA: 20 nM DNA, 10 mM Tris pH 8.0, 25 mM KCl, 1 mM EDTA, 2.5 mM MgCl2, 5% glycerol, 37 C 30 min; footprinting: 200 ng probe, binding at 30 C 30 min, DNase I …. (In general: A gel shift assay detects complexes by their altered migration in electrophoresis.)
Consider “AAACTAAATTGACCATCACTTAACTAGGTGCTCTGTTAAACTTTTGTTATAAATTAAAGATAGAAGCAACCTATTCATATAAAGTGGTATCTCTTGACAATTTTACTCGTTTATAAGATGTTATAATTATGTAGTGTATAAGGAGGCATA (double strand) [rpsA promoter 150 bp]”, for which the binding entry is reported as “binds”.

For the sequence “ATAATGCTAGAGGGACTTTTTCTAAAGACAGTCTACTTATTCGACTATCTATTAAGGTGGTTCATGGTAAAATGATACTAGTTTCATAACAAATCATTTACAATTTTGAATTACATCTTTAGAAATACGAGTTAATTGTTTAAGATGTAGCGTGAGGTG (double strand) [arlR promoter 159 bp]”, the binding result was “binds”.

Take “ATGATAGGAATCATTACGGTTATTCATAAAAATTAGCATCCTATTTCATGTAATTGTAGTGTAAAAAATAGGCGTTTATTTTTATTTCAGTGTAACCTGCACG (double strand) [sceD promoter 103 bp]”: the binding result is reported as “binds”.

As to “ATTATTCAAATGCTTGTAGTTTTATAAGTCGCATTATTATTTTTAAATATTTTCACTATTGAATGGATTTTGATCTTCTTTATAAAAAATAAATAAAAGGTTTAAAGTTAAATAAAATTTAAAAAATAATAATTTATACAAAATGATATTTTTTTTAATCATAAATAATATGTAAAGTATTGCGTTAAAATGTAAAAGAAGGTAACATTACATACTAGATACATAAAATATATGTATCTTACATTTAAAATTAAATACATGGGAGGTATAAT (double strand) [aap promoter]”, the binding entry is reported as “binds”.

For the sequence “CACATTGCTATGTTAATTATTATCAAAAAGAATTTTCAGTAATTTTACATTCATGTAACAGTGTTTGTGTTGCTCAAAATAAAATACTTTAAAAAAGCTGAGCGTATCATTTCTATTCATATTACATAAATTAATTGGGTTAAATGAGATTGTGTAACAATATTAGCAAAAAATTACAAATCAATAACAATGCACACAAACATCAATTTTTCTGTTAGAGTATGGCTTGTCG (double strand) [ssaA1 promoter 232 bp]”, the binding entry is “binds”.

On to “CACGATTTTAGTATTGTCTTCAAAAAATCTTAGTATTTGCTATATATTATGTTAATACATGTATATCTTAGCATTATTTAAATAAGGAATGAATTATTTAAAGGTGAGCGCAACAAAATTTTAAGTATATTTTAACACTACCTTAACAGTCTTTAATGAATGATTTTATCACTATCTAATAGAACGTG (double strand) [murE promoter 188 bp]”, for which the binding entry is on record as “binds”.

As for “CATCTATTCATTCAATCAAGTATTTTTATTCTTTATAAAACTATGTTAGCAAATTAAATTTTAATACACGTTTCATTAATTCAAATCCCATTCTTAACAAAAAATTTACAATAACTCTATTTTGATTTAATAAAAGATATGTAACATGAGAACTGTAAGAAATACATAT (double strand) [pstS promoter 167 bp]”, the binding entry is on record as “binds”.

“TGATTTTATCGCTCATCATTTTTAATAAGATTATGAGACACTTATGTAAAAATTTAATATCTAGTTTGTTAAGAATTTGTAAATAGAATTGTGGTTATGTAAATTTTGTGATATTTTCAAGTAGGGACAAAACTGGATGTTGGCGAACATCAATAAATGATTACTATATATTAAATTTACACAATTTTTACAATATAAGAATTGCTAGTTACTTTTTATAATAATTGTAAATCAGTTCCTCAACCACTT (double strand) [pitR promoter 249 bp]”: the binding entry was “binds”.

Turning to “TTACAAACCCCGTCATATCTAGGACTAACAGACCTCAATTATATAAATAAGTAATTTTTTTTGAACATACTCTTGTAAATATTGTGTAATAAACTAAAATTATTGGTAAGCCCTACATTTGTAGTATTAGGAGGTCAAAAAAAGTGTCAAAATTTAAGTCTTTGCTTCTATTATTTGGCA (double strand) [qoxB promoter 180 bp]”, the binding entry is given as “binds”.

Take “TTCTAAAATCTCCCCCTTATTCAATTTTCTAAAAATATATTACAGAAAAATTAAGTTAAAATTACAAATATTACTGTTTCAGTATAACAACATTCTATTGCAAATTGAAATACTTTCGATTAGCATATGCTTTACAACCTAACTAACGAAAGGTAGGTGAAAAA (double strand) [ica intergenic region (icaR-icaA)]”: the binding entry is listed as “binds”.
